From the supplement of paper PMC11865577

How the values were obtained:
Test in all cases: pull-down binding Z-score (relative to library population); higher = stronger binding
[1] = system: G-clamp-N3 (biotin conjugate); settings: RNA library: Library-1 (pre-miRNA loops + repeats)
How it was run: (§1)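 Streptavidin beads bearing 100 pmol of a biotin-conjugated small molecule were incubated for 60 min at 25 °C with 1 μg of heat-folded, Cy5- or Cy3-end-labelled RNA library in phosphate/NaCl/KCl buffer. Hot SDS eluted the RNA that stayed bound after three washes, and this RNA was hybridised for 20 h at 55.5 °C to a DNA barcode microarray. Binding was expressed as a Z-score against the library mean and standard deviation, after subtraction of a beads-only signal and trimmed averaging of barcoded replicate probes.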

[2] = system: TO-N3-2 (biotin conjugate); settings: RNA library: Library-2
How it was run: as §1

TO-N3 (biotin conjugate) = settings: RNA library: Library-2
How it was run: as §1

[3] = system: TO-3-N3 (biotin conjugate); settings: RNA library: Library-2
How it was run: as §1

[4] = system: TO-3-N3-2 (biotin conjugate); settings: RNA library: Library-2
How it was run: as §1

GUCAUUUUUCUGUGACUGCACAUGGC [hsa-mir-3136]
pull-down binding Z-score [1]: -0.497
pull-down binding Z-score [2]: -0.214
pull-down binding Z-score (TO-N3 (biotin conjugate)): -0.215
pull-down binding Z-score [3]: -0.191
pull-down binding Z-score [4]: -0.15

GUCCAUUAGGCUUUGUUAUGGAAACUUCUCCUGAUC [hsa-mir-635]
pull-down binding Z-score [1]: -0.608
pull-down binding Z-score [2]: 0.875
pull-down binding Z-score (TO-N3 (biotin conjugate)): 0.6
pull-down binding Z-score [3]: 0.517
pull-down binding Z-score [4]: 0.607

GUCCCAAUACAUGUGGGCC [hsa-mir-586]
pull-down binding Z-score [1]: -0.0916
pull-down binding Z-score [2]: -0.294
pull-down binding Z-score (TO-N3 (biotin conjugate)): -0.22
pull-down binding Z-score [3]: -0.000511
pull-down binding Z-score [4]: -0.158

GUCCGGGUGGGUUCCGGCA [hsa-mir-657]
pull-down binding Z-score [1]: -2.05
pull-down binding Z-score [2]: 2.1
pull-down binding Z-score (TO-N3 (biotin conjugate)): 1.33
pull-down binding Z-score [3]: 1.07
pull-down binding Z-score [4]: 1.29

GUCCUGACUGCGUGCCAGGGGC [hsa-mir-3650]
pull-down binding Z-score [1]: 0.903
pull-down binding Z-score [2]: 0.488
pull-down binding Z-score (TO-N3 (biotin conjugate)): -0.175
pull-down binding Z-score [3]: -0.235
pull-down binding Z-score [4]: -0.518

GUCCUGCCCUCACUGGGAACCCCCUUCCCUCUGGGUACCAG [hsa-mir-1324]
pull-down binding Z-score [1]: -0.948
pull-down binding Z-score [2]: 1.39
pull-down binding Z-score (TO-N3 (biotin conjugate)): 1.88
pull-down binding Z-score [3]: 1.48
pull-down binding Z-score [4]: 0.477

GUCUCGGUCCUUUGGAACGUGGC [hsa-mir-4470]
pull-down binding Z-score [1]: -0.378
pull-down binding Z-score [2]: -0.476
pull-down binding Z-score (TO-N3 (biotin conjugate)): -0.607
pull-down binding Z-score [3]: -0.39
pull-down binding Z-score [4]: -0.387

GUCUGCCAAAACCUUGGCAGAC [hsa-mir-3913-1]
pull-down binding Z-score [1]: 0.901
pull-down binding Z-score [2]: -1.22
pull-down binding Z-score (TO-N3 (biotin conjugate)): -1.02
pull-down binding Z-score [3]: -0.531
pull-down binding Z-score [4]: -0.517

GUCUGCCAAGGUUUUGGCAGAC [hsa-mir-3913-2]
pull-down binding Z-score [1]: 0.558
pull-down binding Z-score [2]: -1.2
pull-down binding Z-score (TO-N3 (biotin conjugate)): -0.992
pull-down binding Z-score [3]: -0.58
pull-down binding Z-score [4]: -0.539

GUCUGGCAUUGUCUGAUAUAC [hsa-mir-1294]
pull-down binding Z-score [1]: 0.671
pull-down binding Z-score [2]: 0.408
pull-down binding Z-score (TO-N3 (biotin conjugate)): 1.2
pull-down binding Z-score [3]: 1.12
pull-down binding Z-score [4]: 0.316

GUCUGUCACUGGGGAAGUC [hsa-mir-4682]
pull-down binding Z-score [1]: 1.71
pull-down binding Z-score [2]: 0.993
pull-down binding Z-score (TO-N3 (biotin conjugate)): 1.19
pull-down binding Z-score [3]: 0.735
pull-down binding Z-score [4]: 0.276

GUCUGUUUUCUUCAUGGUUUUCUGAC [hsa-mir-6759]
pull-down binding Z-score [1]: 0.125
pull-down binding Z-score [2]: -0.557
pull-down binding Z-score (TO-N3 (biotin conjugate)): -0.999
pull-down binding Z-score [3]: -0.779
pull-down binding Z-score [4]: -0.481

GUCUUGAUCCCCCACCCCAAGAC [hsa-mir-642b]
pull-down binding Z-score [1]: -1.37
pull-down binding Z-score [2]: 0.091
pull-down binding Z-score (TO-N3 (biotin conjugate)): -0.41
pull-down binding Z-score [3]: -0.257
pull-down binding Z-score [4]: -0.299

GUCUUGGGGUGGGGGAUCAAGAC [hsa-mir-642a]
pull-down binding Z-score [1]: 0.431
pull-down binding Z-score [2]: 1.89
pull-down binding Z-score (TO-N3 (biotin conjugate)): 2.61
pull-down binding Z-score [3]: 2.99
pull-down binding Z-score [4]: 2.9

GUGAACAUUGCAU [hsa-mir-4301]
pull-down binding Z-score [1]: -0.223
pull-down binding Z-score [2]: -0.237
pull-down binding Z-score (TO-N3 (biotin conjugate)): -0.356
pull-down binding Z-score [3]: -0.353
pull-down binding Z-score [4]: -0.219

GUGAACCUGAAUUUGCCUUGGGUUUCCU [hsa-mir-670]
pull-down binding Z-score [1]: -0.325
pull-down binding Z-score [2]: 1.76
pull-down binding Z-score (TO-N3 (biotin conjugate)): 0.262
pull-down binding Z-score [3]: -0.509
pull-down binding Z-score [4]: -0.132

GUGACGCCGCGAAGUGCAC [hsa-mir-3147]
pull-down binding Z-score [1]: 1.18
pull-down binding Z-score [2]: 0.997
pull-down binding Z-score (TO-N3 (biotin conjugate)): 0.406
pull-down binding Z-score [3]: 0.25
pull-down binding Z-score [4]: 0.172

GUGAGAGAUGCUUCUAGAUCCAGGAGGCAGACCUCAA [hsa-mir-4325]
pull-down binding Z-score [1]: -0.658
pull-down binding Z-score [2]: 0.879
pull-down binding Z-score (TO-N3 (biotin conjugate)): 0.822
pull-down binding Z-score [3]: 0.524
pull-down binding Z-score [4]: 0.123

GUGAGAUGUUCAUACAAUCCCUCAC [hsa-mir-216a]
pull-down binding Z-score [1]: -1.01
pull-down binding Z-score [2]: -0.17
pull-down binding Z-score (TO-N3 (biotin conjugate)): -0.852
pull-down binding Z-score [3]: -0.788
pull-down binding Z-score [4]: -0.438

GUGAGCGCAGGUCUUUGGCAC [hsa-mir-4450]
pull-down binding Z-score [1]: 2.36
pull-down binding Z-score [2]: 0.729
pull-down binding Z-score (TO-N3 (biotin conjugate)): 0.339
pull-down binding Z-score [3]: 0.104
pull-down binding Z-score [4]: 0.39

GUGAGCUCAGCUCCCUGCCUCAC [hsa-mir-3622b]
pull-down binding Z-score [1]: -1.4
pull-down binding Z-score [2]: 0.811
pull-down binding Z-score (TO-N3 (biotin conjugate)): 0.138
pull-down binding Z-score [3]: -0.00258
pull-down binding Z-score [4]: -0.173

GUGAGCUGGAAAUGGGGUGCUAC [hsa-mir-598]
pull-down binding Z-score [1]: 1.37
pull-down binding Z-score [2]: 0.962
pull-down binding Z-score (TO-N3 (biotin conjugate)): 1.5
pull-down binding Z-score [3]: 1.46
pull-down binding Z-score [4]: 0.651

GUGAGGCAGGGAGCUGAGCUCAC [hsa-mir-3622a]
pull-down binding Z-score [1]: -0.0355
pull-down binding Z-score [2]: 1.06
pull-down binding Z-score (TO-N3 (biotin conjugate)): 0.698
pull-down binding Z-score [3]: 0.401
pull-down binding Z-score [4]: 0.142

GUGAGGUAUUUUAGUAACAUCAC [hsa-mir-125b-2]
pull-down binding Z-score [1]: 0.629
pull-down binding Z-score [2]: -0.794
pull-down binding Z-score (TO-N3 (biotin conjugate)): -0.969
pull-down binding Z-score [3]: -0.818
pull-down binding Z-score [4]: -0.536

GUGAGUGUCUCUUGUCGC [hsa-mir-1281]
pull-down binding Z-score [1]: 1.22
pull-down binding Z-score [2]: 0.25
pull-down binding Z-score (TO-N3 (biotin conjugate)): 0.328
pull-down binding Z-score [3]: 0.334
pull-down binding Z-score [4]: -0.252

GUGAGUUAGAAAAGCUCAAUUCAC [hsa-mir-4457]
pull-down binding Z-score [1]: -0.276
pull-down binding Z-score [2]: -0.405
pull-down binding Z-score (TO-N3 (biotin conjugate)): -0.662
pull-down binding Z-score [3]: -0.654
pull-down binding Z-score [4]: -0.365

GUGAUAGGAUUUAUCAC [hsa-mir-4999]
pull-down binding Z-score [1]: -0.554
pull-down binding Z-score [2]: -0.819
pull-down binding Z-score (TO-N3 (biotin conjugate)): -0.436
pull-down binding Z-score [3]: -0.154
pull-down binding Z-score [4]: -0.295

GUGAUAGUAAUAAAGUCUCAU [hsa-mir-135a-2]
pull-down binding Z-score [1]: -0.286
pull-down binding Z-score [2]: -0.0282
pull-down binding Z-score (TO-N3 (biotin conjugate)): -0.32
pull-down binding Z-score [3]: -0.314
pull-down binding Z-score [4]: -0.218

GUGAUGUGAGGAGCAACAGGCACCCUCCU [hsa-mir-6792]
pull-down binding Z-score [1]: -0.596
pull-down binding Z-score [2]: 0.846
pull-down binding Z-score (TO-N3 (biotin conjugate)): 0.246
pull-down binding Z-score [3]: -0.0611
pull-down binding Z-score [4]: 0.254

GUGAUUACAUUAAAACUUAAAAUUUCAC [hsa-mir-4719]
pull-down binding Z-score [1]: -1.01
pull-down binding Z-score [2]: -0.663
pull-down binding Z-score (TO-N3 (biotin conjugate)): -0.105
pull-down binding Z-score [3]: -0.0289
pull-down binding Z-score [4]: -0.244

GUGAUUGUCUUCCUCACUCAAUCAG [hsa-mir-4704]
pull-down binding Z-score [1]: -1.11
pull-down binding Z-score [2]: -0.0609
pull-down binding Z-score (TO-N3 (biotin conjugate)): 0.0942
pull-down binding Z-score [3]: 0.145
pull-down binding Z-score [4]: -0.174

GUGCACUUCAUUUACGAUGUAG [hsa-mir-1193]
pull-down binding Z-score [1]: -0.679
pull-down binding Z-score [2]: 0.478
pull-down binding Z-score (TO-N3 (biotin conjugate)): 0.741
pull-down binding Z-score [3]: 0.515
pull-down binding Z-score [4]: 0.167

GUGCAGCUUGUACCUGCAC [hsa-mir-1293]
pull-down binding Z-score [1]: -0.00619
pull-down binding Z-score [2]: -0.592
pull-down binding Z-score (TO-N3 (biotin conjugate)): -0.0262
pull-down binding Z-score [3]: -0.154
pull-down binding Z-score [4]: -0.574

GUGCUGGCAGUGGCCACGUAA [hsa-mir-4276]
pull-down binding Z-score [1]: 0.096
pull-down binding Z-score [2]: 1.46
pull-down binding Z-score (TO-N3 (biotin conjugate)): 0.642
pull-down binding Z-score [3]: -0.0231
pull-down binding Z-score [4]: 0.0605

GUGGAACUGACCUGCCCCCUUUCUC [hsa-mir-6817]
pull-down binding Z-score [1]: -1.77
pull-down binding Z-score [2]: 0.882
pull-down binding Z-score (TO-N3 (biotin conjugate)): 0.517
pull-down binding Z-score [3]: 0.152
pull-down binding Z-score [4]: 0.124

GUGGAAUGCAAAGUCCCAC [hsa-mir-5698]
pull-down binding Z-score [1]: -0.39
pull-down binding Z-score [2]: -0.551
pull-down binding Z-score (TO-N3 (biotin conjugate)): -0.332
pull-down binding Z-score [3]: -0.264
pull-down binding Z-score [4]: -0.36

GUGGACAGAGGCAAAACUCUAACUUC [hsa-mir-6078]
pull-down binding Z-score [1]: -1.45
pull-down binding Z-score [2]: 0.491
pull-down binding Z-score (TO-N3 (biotin conjugate)): 0.0919
pull-down binding Z-score [3]: -0.31
pull-down binding Z-score [4]: -0.41
